Assay results from the supplement of paper PMC9732359.
± gives the uncertainty stated by the source.

Assay: protein stability index of a GFP-peptide fusion (yeast GPS) (PSI 1-4); higher = more stable; sorted into four equal gates, so the index is relative within each strain
How it was run: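 Tiled 17-residue peptides from yeast proteins were fused downstream of GFP on a plasmid that also expresses Cherry, and the pooled library was carried in yeast. Mid-log cultures grown in leucine-free medium were sorted into four equal gates by GFP/Cherry fluorescence ratio. Plasmids from each gate were PCR-amplified and Illumina-sequenced, and reads were assigned to strains by barcodes. Each peptide's protein stability index is the sum, over gates, of the gate's read frequency multiplied by its gate number.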

Row | Sequence | protein stability index (doa10∆) | protein stability index (pdr5∆) | protein stability index (san1∆) | protein stability index (ubr1∆)
1 | IERIGHLLSINYGEKEE [PCI8] | 1.32 ± 0.06 | 1.33 ± 0.055 | 1.2 ± 0.092 | 1.18 ± 0.049
2 | DLVHIKDSLDNTFVTRL [RPS4A] | 2.79 ± 0.12 | 2.83 ± 0.091 | 3 ± 0.094 | 3.04 ± 0.058
3 | SKEDYETLKRDRKQSQA [ARP7] | 2.79 ± 0.071 | 2.9 ± 0.098 | 2.57 ± 0.093 | 2.6 ± 0.065
4 | QAEATEWAEENADNVEW [RPS0A] | 2.18 ± 0.11 | 1.8 ± 0.11 | 2.27 ± 0.083 | 2.41 ± 0.066
5 | PEYGRIIASASYDKTVK [YGL100W/SEH1] | 2.27 ± 0.079 | 2.28 ± 0.082 | 3.03 ± 0.087 | 2.11 ± 0.056
6 | WIKFLLHTLYLRPASAI [SSN8] | 1.74 ± 0.045 | 1.29 ± 0.035 | 1.25 ± 0.068 | 1.15 ± 0.038
7 | YPVYTRLRTLCRDSDDH [DIS3] | 2.56 ± 0.2 | 2.77 ± 0.13 | 2.29 ± 0.24 | 2.95 ± 0.046
8 | MSRDAPIKADKDYSQIL [RPN5] | 2.97 ± 0.1 | 2.44 ± 0.078 | 2.21 ± 0.13 | 2.67 ± 0.062
9 | IFLAERRILPKPSRTSR [RPS7A] | – | 3.15 ± 0.21 | 2.8 ± 0.14 | 2.89 ± 0.13
10 | TPPDDLHPYVPSSKPQE [SRB8] | 2.71 ± 0.081 | 2.98 ± 0.073 | 2.93 ± 0.048 | 3.07 ± 0.049
11 | TNWIIYPLWVMAKQLIR [CSN12] | 1.39 ± 0.11 | 1.2 ± 0.13 | – | 1.24 ± 0.11
12 | PLQNIHVRKVKLLKQPK [RPS1A] | 2.69 ± 0.075 | 2.82 ± 0.074 | 2.71 ± 0.051 | 2.53 ± 0.065
13 | EIFDVTSNGLKKNPNWL [FAS1] | 3.54 ± 0.16 | 3.46 ± 0.11 | 2.64 ± 0.18 | 3.37 ± 0.06
14 | ISVGESGDRLTRASKVL [RPL11A] | – | 3.08 ± 0.19 | – | 3.4 ± 0.22
15 | VDFACCTNLTNRTLYEL [GRR1] | 2.72 ± 0.061 | 2.71 ± 0.061 | 2.26 ± 0.06 | 2.73 ± 0.044
16 | VLQEYRLTKQAFDWVLS [RPO21] | 2.59 ± 0.068 | 2.48 ± 0.069 | 2.89 ± 0.073 | 2.78 ± 0.046
17 | EYKLRSLTLSFIRHVAK [ECM29] | 2.49 ± 0.068 | 2.54 ± 0.062 | 2.77 ± 0.049 | 2.81 ± 0.046
18 | LEYNVALNDVYLDADVA [YML031W/NDC1] | 3.32 ± 0.13 | 3.33 ± 0.13 | 3.05 ± 0.12 | –
19 | KNTELSYDFLPLSNIKA [RPN12] | 3.13 ± 0.075 | 2.85 ± 0.074 | 3.08 ± 0.086 | 3.09 ± 0.068
20 | EDDEFEDFPIDTWANGE [SEM1] | 3.32 ± 0.098 | 3.26 ± 0.11 | 2.85 ± 0.11 | 3.03 ± 0.078
21 | IVAALPISEKGLTLSTT [RPP1] | 2.11 ± 0.087 | 2.61 ± 0.063 | 2.65 ± 0.057 | 2.48 ± 0.094
22 | TQSYNNQNTLKEISARR [POP1] | 2.29 ± 0.041 | 2.48 ± 0.035 | 2.24 ± 0.063 | 2.78 ± 0.037
23 | AKTELNEVSLAIKKSSM [SMC2] | 3.03 ± 0.06 | 3.12 ± 0.087 | 3.04 ± 0.11 | 2.96 ± 0.053
24 | HCITSITLALADAGIEL [MTR3] | 1.5 ± 0.071 | 1.86 ± 0.094 | – | 1.55 ± 0.097
25 | DTLKDISTSFCFICLLH [BRN1] | 2.01 ± 0.081 | 2.44 ± 0.072 | 2.27 ± 0.14 | 1.95 ± 0.083
26 | TNNVLRKLGLLGDKEDE [MTW1] | 2.27 ± 0.048 | 2.35 ± 0.054 | 1.85 ± 0.085 | 2.58 ± 0.049
27 | RGEIREIEQVCKQVHDK [MED7] | 3.06 ± 0.077 | 3.27 ± 0.046 | 2.8 ± 0.062 | 2.87 ± 0.073
